{
  "source": "the MegaScale stability set (Tsuboyama et al. 2023)",
  "parents": {"B1": {"name": "2M8U (parent)", "chain": "TKAQVIEAFKVFDRDGNGYVTVDYLRKVLNELGDMMPADEIEEMIYEADPQNSGYVQYETFVGMLFL"}},
  "data": [
    {"variants_of": "B1", "test": "folding stability dG (cDNA display proteolysis); higher = more stable", "conditions": "PBS, room temperature", "units": {"folding stability dG": "kcal/mol"}, "values": [
      {"variant": "TKAQVIEAFKVFDRDGNGYVTVDYLRKVLNELGDMMPADEIEHMIYEADPQNSGYVQYETFVGMLFL", "folding stability dG": 4.05},
      {"variant": "TKAQVIEAFKVFDRDGNGYVTVDYLRKVLNELGDMMPADEIESMIYEADPQNSGYVQYETFVGMLFL", "folding stability dG": 3.74},
      {"variant": "TKAQVIEAFKVFDRDGNGYVTVDYLRKVLNELGDMMPADEIETMIYEADPQNSGYVQYETFVGMLFL", "folding stability dG": 3.73},
      {"variant": "TKAQVIEAFKVFDRDGNGYVTVDYLRKVLNELGDMMPADEIEMMIYEADPQNSGYVQYETFVGMLFL", "folding stability dG": 3.82},
      {"variant": "TKAQVIEAFKVFDRDGNGYVTVDYLRKVLNELGDMMPADEIENMIYEADPQNSGYVQYETFVGMLFL", "folding stability dG": 3.64},
      {"variant": "TKAQVIEAFKVFDRDGNGYVTVDYLRKVLNELGDMMPADEIERMIYEADPQNSGYVQYETFVGMLFL", "folding stability dG": 4.37},
      {"variant": "TKAQVIEAFKVFDRDGNGYVTVDYLRKVLNELGDMMPADEIEYMIYEADPQNSGYVQYETFVGMLFL", "folding stability dG": 3.69},
      {"variant": "TKAQVIEAFKVFDRDGNGYVTVDYLRKVLNELGDMMPADEIEKMIYEADPQNSGYVQYETFVGMLFL", "folding stability dG": 3.75},
      {"variant": "TKAQVIEAFKVFDRDGNGYVTVDYLRKVLNELGDMMPADEIELMIYEADPQNSGYVQYETFVGMLFL", "folding stability dG": 3.73},
      {"variant": "TKAQVIEAFKVFDRDGNGYVTVDYLRKVLNELGDMMPADEIEQMIYEADPQNSGYVQYETFVGMLFL", "folding stability dG": 3.9},
      {"variant": "TKAQVIEAFKVFDRDGNGYVTVDYLRKVLNELGDMMPADEIEPMIYEADPQNSGYVQYETFVGMLFL", "folding stability dG": 3.54},
      {"variant": "TKAQVIEAFKVFDRDGNGYVTVDYLRKVLNELGDMMPADEIEGMIYEADPQNSGYVQYETFVGMLFL", "folding stability dG": 3.58},
      {"variant": "TKAQVIEAFKVFDRDGNGYVTVDYLRKVLNELGDMMPADEIEFMIYEADPQNSGYVQYETFVGMLFL", "folding stability dG": 3.8},
      {"variant": "TKAQVIEAFKVFDRDGNGYVTVDYLRKVLNELGDMMPADEIEIMIYEADPQNSGYVQYETFVGMLFL", "folding stability dG": 3.87},
      {"variant": "TKAQVIEAFKVFDRDGNGYVTVDYLRKVLNELGDMMPADEIEVMIYEADPQNSGYVQYETFVGMLFL", "folding stability dG": 3.78},
      {"variant": "TKAQVIEAFKVFDRDGNGYVTVDYLRKVLNELGDMMPADEIEWMIYEADPQNSGYVQYETFVGMLFL", "folding stability dG": 3.87},
      {"variant": "TKAQVIEAFKVFDRDGNGYVTVDYLRKVLNELGDMMPADEIEESIYEADPQNSGYVQYETFVGMLFL", "folding stability dG": 2.96},
      {"variant": "TKAQVIEAFKVFDRDGNGYVTVDYLRKVLNELGDMMPADEIEEKIYEADPQNSGYVQYETFVGMLFL", "folding stability dG": 3.56},
      {"variant": "TKAQVIEAFKVFDRDGNGYVTVDYLRKVLNELGDMMPADEIEEQIYEADPQNSGYVQYETFVGMLFL", "folding stability dG": 2.95},
      {"variant": "TKAQVIEAFKVFDRDGNGYVTVDYLRKVLNELGDMMPADEIEEPIYEADPQNSGYVQYETFVGMLFL", "folding stability dG": 1.8},
      {"variant": "TKAQVIEAFKVFDRDGNGYVTVDYLRKVLNELGDMMPADEIEEDIYEADPQNSGYVQYETFVGMLFL", "folding stability dG": 2.25},
      {"variant": "TKAQVIEAFKVFDRDGNGYVTVDYLRKVLNELGDMMPADEIEEVIYEADPQNSGYVQYETFVGMLFL", "folding stability dG": 3.07},
      {"variant": "TKAQVIEAFKVFDRDGNGYVTVDYLRKVLNELGDMMPADEIEEGIYEADPQNSGYVQYETFVGMLFL", "folding stability dG": 2.53},
      {"variant": "TKAQVIEAFKVFDRDGNGYVTVDYLRKVLNELGDMMPADEIEEHIYEADPQNSGYVQYETFVGMLFL", "folding stability dG": 3.52},
      {"variant": "TKAQVIEAFKVFDRDGNGYVTVDYLRKVLNELGDMMPADEIEEIIYEADPQNSGYVQYETFVGMLFL", "folding stability dG": 3.05},
      {"variant": "TKAQVIEAFKVFDRDGNGYVTVDYLRKVLNELGDMMPADEIEECIYEADPQNSGYVQYETFVGMLFL", "folding stability dG": 3.6},
      {"variant": "TKAQVIEAFKVFDRDGNGYVTVDYLRKVLNELGDMMPADEIEEYIYEADPQNSGYVQYETFVGMLFL", "folding stability dG": 3.21},
      {"variant": "TKAQVIEAFKVFDRDGNGYVTVDYLRKVLNELGDMMPADEIEEWIYEADPQNSGYVQYETFVGMLFL", "folding stability dG": 3.21},
      {"variant": "TKAQVIEAFKVFDRDGNGYVTVDYLRKVLNELGDMMPADEIEERIYEADPQNSGYVQYETFVGMLFL", "folding stability dG": 3.66},
      {"variant": "TKAQVIEAFKVFDRDGNGYVTVDYLRKVLNELGDMMPADEIEETIYEADPQNSGYVQYETFVGMLFL", "folding stability dG": 2.97},
      {"variant": "TKAQVIEAFKVFDRDGNGYVTVDYLRKVLNELGDMMPADEIEEAIYEADPQNSGYVQYETFVGMLFL", "folding stability dG": 3.48},
      {"variant": "TKAQVIEAFKVFDRDGNGYVTVDYLRKVLNELGDMMPADEIEEFIYEADPQNSGYVQYETFVGMLFL", "folding stability dG": 3.09},
      {"variant": "TKAQVIEAFKVFDRDGNGYVTVDYLRKVLNELGDMMPADEIEEEIYEADPQNSGYVQYETFVGMLFL", "folding stability dG": 2.18},
      {"variant": "TKAQVIEAFKVFDRDGNGYVTVDYLRKVLNELGDMMPADEIEELIYEADPQNSGYVQYETFVGMLFL", "folding stability dG": 3.65},
      {"variant": "TKAQVIEAFKVFDRDGNGYVTVDYLRKVLNELGDMMPADEIEENIYEADPQNSGYVQYETFVGMLFL", "folding stability dG": 2.88},
      {"variant": "TKAQVIEAFKVFDRDGNGYVTVDYLRKVLNELGDMMPADEIEEMCYEADPQNSGYVQYETFVGMLFL", "folding stability dG": 2.67},
      {"variant": "TKAQVIEAFKVFDRDGNGYVTVDYLRKVLNELGDMMPADEIEEMEYEADPQNSGYVQYETFVGMLFL", "folding stability dG": 2.15},
      {"variant": "TKAQVIEAFKVFDRDGNGYVTVDYLRKVLNELGDMMPADEIEEMDYEADPQNSGYVQYETFVGMLFL", "folding stability dG": 2.39},
      {"variant": "TKAQVIEAFKVFDRDGNGYVTVDYLRKVLNELGDMMPADEIEEMFYEADPQNSGYVQYETFVGMLFL", "folding stability dG": 2.61},
      {"variant": "TKAQVIEAFKVFDRDGNGYVTVDYLRKVLNELGDMMPADEIEEMAYEADPQNSGYVQYETFVGMLFL", "folding stability dG": 2.37}
    ]}
  ]
}
